From patent publication US20230374150A1 (Memorial Sloan Kettering, published 2023)

Key:
[1] = target: T1, Human PSMA antigen (human, UniProt Q04609 44-750, limits assumed); test: SPR (Biacore), 37 C, antibody over immobilized PSMA
T1 construct: This is the antigen immobilised on the Biacore chip; also called FOLH1_HUMAN
From the text: The calculated kinetic parameters derived from SPR are shown in FIG. 4C, showing distinct differences in affinities when compared to the chimeric and the original mouse antibody J591. Increased affinity of anti-PSMA antibodies should translate into higher potency, while lower affinity anti-PSMA antibodies into lower toxicity. This affinity modulation is achieved without altering the CDR sequences. Based on the binding kinetics, the clone having combination of J591_VL-1 and J591_VH-3, which has near identical binding kinetics to those of J591 chimeric antibody, was chosen to build the PSMA-BsAb (BC244) of the present technology. The amino acid sequences of the light chain (SEQ ID NO: 11) and the heavy chain (SEQ ID NO: 12) of the select clone are shown in FIG. 12. Mutation N297A was used to remove glycosylation, and K322A to minimize complement activation.

[2] = target: T1, Human PSMA antigen; test: SPR Biacore, immobilised human PSMA, 37 C, 1:1 fit
Method: (§1) PSMA-BsAb Biacore Settings. Human PSMA antigen was immobilized directly on Fc2 at 3000 RU, and cynomolgus PSMA (ACRO) on Fc4 at 3000 RU (Blank on Fc1 and Fc3 as controls). Abs were run through the system at 37° C., at concentrations of 250 and 500 nM, with association time 1 min, dissociation time 15 min. Regeneration was performed at 30 mM NaOH. All data were fitted with 1:1 model.

[3] = target: T2, cynomolgus PSMA (ACRO) (cynomolgus, UniProt A0A2K5VNZ0 44-750); test: SPR Biacore, immobilised cynomolgus PSMA, 37 C, 1:1 fit
T2 construct: Immobilised on the Biacore chip
Method: as §1

T1 sequence (Q04609 44-750 limits assumed): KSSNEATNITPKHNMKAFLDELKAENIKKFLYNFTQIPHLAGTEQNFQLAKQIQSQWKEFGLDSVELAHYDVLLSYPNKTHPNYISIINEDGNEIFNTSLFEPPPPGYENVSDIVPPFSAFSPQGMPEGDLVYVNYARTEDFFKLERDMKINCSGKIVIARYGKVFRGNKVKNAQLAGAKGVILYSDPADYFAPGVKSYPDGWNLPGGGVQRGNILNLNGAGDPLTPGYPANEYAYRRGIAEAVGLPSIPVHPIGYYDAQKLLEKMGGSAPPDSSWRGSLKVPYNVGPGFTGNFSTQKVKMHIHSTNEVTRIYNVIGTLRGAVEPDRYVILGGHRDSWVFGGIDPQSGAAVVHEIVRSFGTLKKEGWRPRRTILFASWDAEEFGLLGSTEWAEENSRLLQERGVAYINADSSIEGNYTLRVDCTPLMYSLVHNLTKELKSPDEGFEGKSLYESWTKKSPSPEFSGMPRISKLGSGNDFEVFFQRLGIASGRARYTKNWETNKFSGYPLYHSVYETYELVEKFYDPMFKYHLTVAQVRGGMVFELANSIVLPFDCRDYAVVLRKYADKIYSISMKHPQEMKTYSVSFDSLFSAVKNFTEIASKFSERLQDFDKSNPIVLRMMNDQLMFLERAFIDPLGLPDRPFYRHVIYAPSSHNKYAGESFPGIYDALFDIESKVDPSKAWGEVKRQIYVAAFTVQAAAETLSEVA

Row | Kd [1] [nM] | fold-change KD relative to chimeric [1] [fold] | koff [1] [s⁻¹] | kon [1] [M⁻¹ s⁻¹] | Kd [2] [nM] | koff [2] [s⁻¹] | kon [2] [M⁻¹ s⁻¹] | t ½ [2] [min] | Kd [3] [nM] | koff [3] [s⁻¹] | kon [3] [M⁻¹ s⁻¹] | t ½ [3] [min] | Binder
1 | 3.54 | 17.2 | 0.000176 | 49700 |  |  |  |  |  |  |  |  | huJ591 (J591_VH-2 + J591_VL-1) (antibody, human IgG1, V domains shown, One of the 9 huJ591 versions; Human IgG1 frameworks) VH: QVQLVQSGAEVKKPGASVKVSCKASGYTFTEYTMHWVRQAPGQGLEWMGNINPNNGGTTYNQKFQGRVTMTVDKSISTAYMELSRLRSDDTAVYYCAAGWNFDYWGQGTLVTVSS VL: DIQLTQSPSFLSASVGDRVTITCRASQDVGTALDWYQQKPGKAPKLLIYWASTLHSGVPSRFSGSGSGTEFTLTISSLQPEDFATYYCQQYNSYPLTFGQGTKLEIK
2 | 11.9 | 57.8 | 0.00057 | 47900 |  |  |  |  |  |  |  |  | huJ591 (J591_VH-3 + J591_VL-3) (antibody, human IgG1, V domains shown, One of the 9 huJ591 versions; Human IgG1 frameworks) VH: QVQLVQSGAEVKKPGASVKVSCKASGYTFTEYTMHWVRQAPGQRLEWMGNINPNNGGTTYSQKFQGRVTITVDKSASTAYMELSSLRSEDTAVYYCAAGWNFDYWGQGTLVTVSS VL: DIVMTQSPSSLSASVGDRVTITCRASQDVGTALDWYQQKPGKAPELLIYWASSLHSGVPSRFRGSGSGTDFTLTISSVQPEDFATYYCQQYNSYPLTFGQGTKLEIK
3 | 1.67 | 8.1 | 9.69e-05 | 58200 |  |  |  |  |  |  |  |  | huJ591 clone having combination of J591_VL-1 and J591_VH-3 (antibody, V domains shown, also called the select clone) VH: QVQLVQSGAEVKKPGASVKVSCKASGYTFTEYTMHWVRQAPGQRLEWMGNINPNNGGTTYSQKFQGRVTITVDKSASTAYMELSSLRSEDTAVYYCAAGWNFDYWGQGTLVTVSS VL: DIQLTQSPSFLSASVGDRVTITCRASQDVGTALDWYQQKPGKAPKLLIYWASTLHSGVPSRFSGSGSGTEFTLTISSLQPEDFATYYCQQYNSYPLTFGQGTKLEIKR
4 | 2.54 | 12.3 | 0.000146 | 57400 |  |  |  |  |  |  |  |  | huJ591 (J591_VH-3 + J591_VL-2) (antibody, human IgG1, V domains shown, One of the 9 huJ591 versions; Human IgG1 frameworks) VH: QVQLVQSGAEVKKPGASVKVSCKASGYTFTEYTMHWVRQAPGQRLEWMGNINPNNGGTTYSQKFQGRVTITVDKSASTAYMELSSLRSEDTAVYYCAAGWNFDYWGQGTLVTVSS VL: DIQLTQSPSFLSASVGDRVTITCRASQDVGTALDWYQQKPGKAPKLLIYWASTRHSGVPSRFSGSGSGTEFTLTISSLQPEDFATYYCQQYNSYPLTFGQGTKLEIK
5 | 4.86 | 23.6 | 0.000379 | 77900 |  |  |  |  |  |  |  |  | huJ591 (J591_VH-1 + J591_VL-2) (antibody, human IgG1, V domains shown, One of the 9 huJ591 versions; Human IgG1 frameworks) VH: QVQLVQSGAEVKKPGASVKVSCKASGYTFTEYTMHWVRQAPGQGLEWMGNINPNNGGTTYAQKFQGRVTMTRDKSISTAYMELSRLRSDDTAVYYCAAGWNFDYWGQGTLVTVSS VL: DIQLTQSPSFLSASVGDRVTITCRASQDVGTALDWYQQKPGKAPKLLIYWASTRHSGVPSRFSGSGSGTEFTLTISSLQPEDFATYYCQQYNSYPLTFGQGTKLEIK
6 | 3.32 | 16.1 | 0.000228 | 68600 |  |  |  |  |  |  |  |  | huJ591 (J591_VH-1 + J591_VL-1) (antibody, human IgG1, V domains shown, One of the 9 huJ591 versions made from three heavy and three light chain designs; Human IgG1 frameworks, expressed in CHO cells) VH: QVQLVQSGAEVKKPGASVKVSCKASGYTFTEYTMHWVRQAPGQGLEWMGNINPNNGGTTYAQKFQGRVTMTRDKSISTAYMELSRLRSDDTAVYYCAAGWNFDYWGQGTLVTVSS VL: DIQLTQSPSFLSASVGDRVTITCRASQDVGTALDWYQQKPGKAPKLLIYWASTLHSGVPSRFSGSGSGTEFTLTISSLQPEDFATYYCQQYNSYPLTFGQGTKLEIK
7 | 3.48 | 16.9 | 0.000211 | 60600 |  |  |  |  |  |  |  |  | huJ591 (J591_VH-2 + J591_VL-3) (antibody, human IgG1, V domains shown, One of the 9 huJ591 versions; Human IgG1 frameworks) VH: QVQLVQSGAEVKKPGASVKVSCKASGYTFTEYTMHWVRQAPGQGLEWMGNINPNNGGTTYNQKFQGRVTMTVDKSISTAYMELSRLRSDDTAVYYCAAGWNFDYWGQGTLVTVSS VL: DIVMTQSPSSLSASVGDRVTITCRASQDVGTALDWYQQKPGKAPELLIYWASSLHSGVPSRFRGSGSGTDFTLTISSVQPEDFATYYCQQYNSYPLTFGQGTKLEIK
8 | 4.81 | 23.3 | 0.000286 | 59400 |  |  |  |  |  |  |  |  | huJ591 (J591_VH-2 + J591_VL-2) (antibody, human IgG1, V domains shown, One of the 9 huJ591 versions; Human IgG1 frameworks) VH: QVQLVQSGAEVKKPGASVKVSCKASGYTFTEYTMHWVRQAPGQGLEWMGNINPNNGGTTYNQKFQGRVTMTVDKSISTAYMELSRLRSDDTAVYYCAAGWNFDYWGQGTLVTVSS VL: DIQLTQSPSFLSASVGDRVTITCRASQDVGTALDWYQQKPGKAPKLLIYWASTRHSGVPSRFSGSGSGTEFTLTISSLQPEDFATYYCQQYNSYPLTFGQGTKLEIK
9 | 3.55 | 17.2 | 0.000285 | 80500 |  |  |  |  |  |  |  |  | huJ591 (J591_VH-1 + J591_VL-3) (antibody, human IgG1, V domains shown, One of the 9 huJ591 versions; Human IgG1 frameworks) VH: QVQLVQSGAEVKKPGASVKVSCKASGYTFTEYTMHWVRQAPGQGLEWMGNINPNNGGTTYAQKFQGRVTMTRDKSISTAYMELSRLRSDDTAVYYCAAGWNFDYWGQGTLVTVSS VL: DIVMTQSPSSLSASVGDRVTITCRASQDVGTALDWYQQKPGKAPELLIYWASSLHSGVPSRFRGSGSGTDFTLTISSVQPEDFATYYCQQYNSYPLTFGQGTKLEIK
10 | 6.39 | 31 | 0.000113 | 17700 |  |  |  |  |  |  |  |  | murine J591 (antibody, V domains shown, also called original mouse antibody J591; mouse J591) VH: EVQLQQSGPELVKPGTSVRISCKTSGYTFTEYTIHWVKQSHGKSLEWIGNINPNNGGTTYNQKFEDKATLTVDKSSSTAYMELRSLTSEDSAVYYCAAGWNFDYWGQGTTLTVSS VL: DIVMTQSHKFMSTSVGDRVSIICKASQDVGTAVDWYQQKPGQSPKLLIYWASTRHTGVPDRFTGSGSGTDFTLTITNVQSEDLADYFCQQYNSYPLTFGAGTMLDLKR
11 |  |  |  |  | 1.6 | 0.000308 | 192000 | 37.5 | 3.58 | 0.000634 | 177000 | 18.2 | humanized anti-PSMAxCD3 BsAb BC243 (H2L3) (bispecific antibody, human IgG1, kappa, N297A, IgG(L)-scFv format, J591_VL-3 + J591_VH-2) light: DIVMTQSPSSLSASVGDRVTITCRASQDVGTALDWYQQKPGKAPELLIYWASSLHSGVPSRFRGSGSGTDFTLTISSVQPEDFATYYCQQYNSYPLTFGQGTKLEIKRTVAAPSVFIFPPSDEQLKSGTASVVCLLNNFYPREAKVQWKVDNALQSGNSQESVTEQDSKDSTYSLSSTLTLSKADYEKHKVYACEVTHQGLSSPVTKSFNRGECTSGGGGSGGGGSGGGGSQVQLVQSGGGVVQPGRSLRLSCKASGYTFTRYTMHWVRQAPGKCLEWIGYINPSRGYTNYNQKFKDRFTISRDNSKNTAFLQMDSLRPEDTGVYFCARYYDDHYSLDYWGQGTPVTVSSGGGGSGGGGSGGGGSGGGGSGGGGSGGGGSDIQMTQSPSSLSASVGDRVTITCSASSSVSYMNWYQQTPGKAPKRWIYDTSKLASGVPSRFSGSGSGTDYTFTISSLQPEDIATYYCQQWSSNPFTFGCGTKLQITR heavy: not shown
12 |  |  |  |  | 2.91 | 0.000444 | 152000 | 26 | 6.67 | 0.000781 | 117000 | 14.8 | humanized anti-PSMAxCD3 BsAb BC244a (H2L1) (bispecific antibody, human IgG1, kappa, N297A, IgG(L)-scFv format) light: DIQLTQSPSFLSASVGDRVTITCRASQDVGTALDWYQQKPGKAPKLLIYWASTLHSGVPSRFSGSGSGTEFTLTISSLQPEDFATYYCQQYNSYPLTFGQGTKLEIKRTVAAPSVFIFPPSDEQLKSGTASVVCLLNNFYPREAKVQWKVDNALQSGNSQESVTEQDSKDSTYSLSSTLTLSKADYEKHKVYACEVTHQGLSSPVTKSFNRGECTSGGGGSGGGGSGGGGSQVQLVQSGGGVVQPGRSLRLSCKASGYTFTRYTMHWVRQAPGKCLEWIGYINPSRGYTNYNQKFKDRFTISRDNSKNTAFLQMDSLRPEDTGVYFCARYYDDHYSLDYWGQGTPVTVSSGGGGSGGGGSGGGGSGGGGSGGGGSGGGGSDIQMTQSPSSLSASVGDRVTITCSASSSVSYMNWYQQTPGKAPKRWIYDTSKLASGVPSRFSGSGSGTDYTFTISSLQPEDIATYYCQQWSSNPFTFGCGTKLQITR heavy: not shown
13 |  |  |  |  | 1.06 | 0.000159 | 150000 | 72.7 | 2.49 | 0.000324 | 130000 | 35.7 | humanized anti-PSMAxCD3 BsAb BC245 (H3L3) (bispecific antibody, human IgG1, kappa, N297A, IgG(L)-scFv format, J591_VL-3 + J591_VH-3) light: DIVMTQSPSSLSASVGDRVTITCRASQDVGTALDWYQQKPGKAPELLIYWASSLHSGVPSRFRGSGSGTDFTLTISSVQPEDFATYYCQQYNSYPLTFGQGTKLEIKRTVAAPSVFIFPPSDEQLKSGTASVVCLLNNFYPREAKVQWKVDNALQSGNSQESVTEQDSKDSTYSLSSTLTLSKADYEKHKVYACEVTHQGLSSPVTKSFNRGECTSGGGGSGGGGSGGGGSQVQLVQSGGGVVQPGRSLRLSCKASGYTFTRYTMHWVRQAPGKCLEWIGYINPSRGYTNYNQKFKDRFTISRDNSKNTAFLQMDSLRPEDTGVYFCARYYDDHYSLDYWGQGTPVTVSSGGGGSGGGGSGGGGSGGGGSGGGGSGGGGSDIQMTQSPSSLSASVGDRVTITCSASSSVSYMNWYQQTPGKAPKRWIYDTSKLASGVPSRFSGSGSGTDYTFTISSLQPEDIATYYCQQWSSNPFTFGCGTKLQITR heavy: not shown
